EP1724347A2
Each block holds one binder with its values, some of them ahead of it. Where no end group is shown, it is not given here.

Target: GST-KIX
Experiment: fluorescence polarization

Sequence of GST-KIX (P45481 586-665): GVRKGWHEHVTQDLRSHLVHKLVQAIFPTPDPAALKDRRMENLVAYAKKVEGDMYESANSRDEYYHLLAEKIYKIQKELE

Kd: 31 nM
B1: phosphorylated PPKID1 (designed binder)
chain: GASDMTYWGDDAPVRRLSFFYILLDLYLDAPC(acetamidofluorescein)
modifications: also: phosphorylated, site not given here

Kd: 280 nM
B2: phosphorylated PPKID2 (designed binder)
chain: GMSRVTPGGDDAPVRRLSFFYILRDLYLDAPC(acetamidofluorescein)
modifications: also: phosphorylated, site not given here

Kd: 73 nM
B3: phosphorylated PPKID3 (designed binder)
chain: GASPHTSSGDDAPVRRLSFFDILLDLYLDAPC(acetamidofluorescein)
modifications: also: phosphorylated, site not given here

Kd: 681 nM
B4: unphosphorylated PPKID3 (designed binder)
chain: GASPHTSSGDDAPVRRLSFFDILLDLYLDAPC(acetamidofluorescein)

Kd: 7600 nM
B5: unphosphorylated PPKID2 (designed binder)
chain: GMSRVTPGGDDAPVRRLSFFYILRDLYLDAPC(acetamidofluorescein)
